What all share (assay): cell-based or functional assay
Assay [1] deals with human GLP-1R (Genebank Accession No. NM_002062) on hGLP-1R/CRE-luc/CHO-K1 cells (human, UniProt P43220 24-463).
Assay [2] deals with T1, human GLP-1R (Genebank Accession No. NM_002062) on hGLP-1R/CRE-luc/CHO-K1 cells (human), P43220.
T1 chain: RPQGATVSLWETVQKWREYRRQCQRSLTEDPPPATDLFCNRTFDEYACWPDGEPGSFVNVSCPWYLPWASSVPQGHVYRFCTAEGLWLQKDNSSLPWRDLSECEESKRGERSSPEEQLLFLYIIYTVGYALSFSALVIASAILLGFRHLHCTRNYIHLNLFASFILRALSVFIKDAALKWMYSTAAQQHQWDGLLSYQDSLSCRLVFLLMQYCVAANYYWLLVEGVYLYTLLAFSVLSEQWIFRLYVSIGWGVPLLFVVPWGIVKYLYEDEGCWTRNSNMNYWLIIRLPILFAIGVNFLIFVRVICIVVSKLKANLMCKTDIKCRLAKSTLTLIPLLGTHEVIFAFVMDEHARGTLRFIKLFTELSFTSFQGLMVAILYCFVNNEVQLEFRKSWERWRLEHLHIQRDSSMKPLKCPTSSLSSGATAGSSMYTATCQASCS

The target in assay [3] is T2, human GIPR (Genebank Accession No. U39231) on hGIPR/CRE-LUC/CHO-K1 cells (human), P48546.
T2 chain: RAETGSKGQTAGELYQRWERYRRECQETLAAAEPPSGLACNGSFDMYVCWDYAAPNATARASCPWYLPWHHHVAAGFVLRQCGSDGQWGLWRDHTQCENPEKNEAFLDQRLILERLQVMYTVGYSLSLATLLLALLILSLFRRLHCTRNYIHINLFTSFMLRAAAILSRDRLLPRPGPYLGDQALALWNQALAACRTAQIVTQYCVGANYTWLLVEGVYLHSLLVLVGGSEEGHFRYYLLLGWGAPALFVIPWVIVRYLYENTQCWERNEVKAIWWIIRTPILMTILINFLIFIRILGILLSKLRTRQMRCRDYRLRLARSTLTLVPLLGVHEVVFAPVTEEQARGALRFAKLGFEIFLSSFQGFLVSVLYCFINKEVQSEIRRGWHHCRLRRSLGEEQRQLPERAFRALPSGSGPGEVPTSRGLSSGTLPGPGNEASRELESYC

Square brackets hold non-standard residues; d marks the D form. Primed or numbered codes have the meaning given here. Side chains are listed from the residue outwards. Ends that are not written are not given here. * marks the point of attachment. C20 diacid = O=C(O)CCCCCCCCCCCCCCCCCCC(=O)*; C18 diacid = O=C(O)CCCCCCCCCCCCCCCCC(=O)*; C16 diacid = O=C(O)CCCCCCCCCCCCCCC(=O)*; Iva = CC[C@](C)(N)C(=O)O; PEG3′ = not defined here; AGlu = not defined here; Aib = CC(C)(N)C(=O)O

B1: Compound No. 7 (peptide)
peptide: YXEGTVVSLYSIXLDKQAQXEFVKWLLKGGPSSGAPPPSX
modifications: Aib at 2, 13, 20; Lys40(Heda-Gly-Gly-Gly-Gly-); synthesized on Sieber amide resin
Take B1: the “hGLP-1R (Reporter gene assay)(EC50)” value in assay [1] is greater than 1000 nM. Y[Aib]EGTFISDYSIALDR[Aib]HQ[Aib]NFVNW[Iva]LAQRPSSGAPPPSK([PEG3′-PEG3′-AGlu-C20 diacid]) (ends and bridges not checked) [Compound No. 23] showed a hGLP-1R (Reporter gene assay)(EC50) in assay [2] greater than 1000 nM. The same molecule registered a hGIPR (polyclonal) Reporter (EC50) in assay [3] of 0.1 nM.

Consider Y[Aib]EGTFISDYSIALDR[Aib]HQ[Aib]NFVNW[Iva]LAQRPSSGAPPPSK([PEG(2)-C20 diacid]) (ends and bridges not checked) [Compound No. 38], for which, in assay [2], the hGLP-1R (Reporter gene assay)(EC50) is greater than 1000 nM. The same molecule displayed a hGIPR (polyclonal) Reporter (EC50) in assay [3] of 0.05 nM.

B2: Compound No. 60 (peptide)
peptide: YXEGTFISDYSIALDRXHQXNFVNWXLAQRPSSGAPPPSX
modifications: MeTyr (N-methyltyrosine) at 1; Aib at 2, 17, 20; Iva at 26; Lys40(Oda-GlyGlyGlyGlyGly); synthesized on Sieber amide resin
For the molecule B2, the “hGLP-1R (Reporter gene assay)(EC50)” value in assay [1] was greater than 1000 nM. Y[Aib]EGTFISDYSIALDR[Aib]HQ[Aib]NFVNW[Iva]LAQRPSSGAPPPSK([PEG(2)-C18 diacid]) (ends and bridges not checked) [Compound No. 42]: in assay [2], the hGLP-1R (Reporter gene assay)(EC50) is greater than 1000 nM. The molecule further came in with a hGIPR (polyclonal) Reporter (EC50) in assay [3] of 0.03 nM. Y[Aib]EGTFISDYSIALDR[Aib]HQ[Aib]NFVNW[Iva]LAQRPSSGAPPPSK([PEG(2)-C16 diacid]) (ends and bridges not checked) [Compound No. 46] gave a hGLP-1R (Reporter gene assay)(EC50) in assay [2] greater than 1000 nM. Also, in assay [3], the hGIPR (polyclonal) Reporter (EC50) was determined as 0.01 nM.

(Values after US20220135638A1 (Takeda / Millennium, published 2022).)
